Changes are numbered by the printed parent chain.
Legend:
[1] = biological target: T1, Recombinant NAA10 (wild type) (human, UniProt P41227 1-235, labeled with Monolith NT Protein Labeling Kit RED); test: MST
T1 sequence: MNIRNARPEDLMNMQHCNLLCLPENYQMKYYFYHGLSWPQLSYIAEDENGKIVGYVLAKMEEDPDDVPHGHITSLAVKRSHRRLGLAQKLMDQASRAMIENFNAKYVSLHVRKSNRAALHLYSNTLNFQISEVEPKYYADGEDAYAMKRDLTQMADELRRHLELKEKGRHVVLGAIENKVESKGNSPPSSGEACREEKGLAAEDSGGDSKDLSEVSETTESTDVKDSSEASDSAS

[2] = biological target: T2, Recombinant NAA10^F128L (human, UniProt P41227 1-235, F128L, labeled with Monolith NT Protein Labeling Kit RED); test: MST
T2 sequence: T1 sequence with F128L

binding result [1]: binds | binding result [2]: binds
Binder: EEEIAALRWGRPVGRRRRPVRVYP [EEEI24 oligopeptide]
